Assay results taken from US12460006B2, “Antibodies against integrin alpha 11 beta 1” (Momenta Pharmaceuticals, Inc., priority 2019, dated 2025).

T1: α11β1 I Domain (Homo sapiens, UniProt Q9UKX5)
T1 sequence (Q9UKX5 164-345 limits assumed): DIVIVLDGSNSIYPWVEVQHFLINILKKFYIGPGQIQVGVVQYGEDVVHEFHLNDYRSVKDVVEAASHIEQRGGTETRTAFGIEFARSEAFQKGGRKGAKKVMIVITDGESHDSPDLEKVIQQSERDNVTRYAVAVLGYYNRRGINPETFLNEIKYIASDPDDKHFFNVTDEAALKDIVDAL


Columns and labels:
α11β1 Headpiece = test: SPR binding to α11β1 Headpiece; set-up: species or system human; settings: SPR data
Procedure: (§1) The affinity of antibodies for human α11β1 was measured by surface plasmon resonance assay (SPR). Affinity was measured at pH 7.6 and 25° C. with a Biacore T200 instrument. Anti-HIS antibody was immobilized on the SPR sensor surface using EDC/NHS covalent attachment. HIS-tagged human α11β1 was captured on the sensor surface and a single-cycle kinetics assay was used. Increasing concentrations of test antibody were injected in series over the sensor-bound α11β1. Dissociation was monitored for 1000 seconds. A sensor surface with only anti-HIS antibody and a series of blank injections were used to double-reference subtract the data. A 1:1 Langmuir model was fit to the data to estimate the kinetic association and dissociation constants. The affinity (equilibrium dissociation constant) of the interaction was calculated by dividing the kinetic dissociation constant by the kinetic association constant. Between injection cycles α11β1 and bound antibody were removed with an injection of 10 mM glycine at pH 1.5.
(§2) The binding affinity of antibodies for the α11β1 Headpiece and α11β1 I Domain as measured by SPR is shown in FIG. 10A and FIG. 10B, respectively.

[1] = system: CHO cell lines expressing α11; test: Collagen gel contraction assay; format: cell-based, human; settings: vs untreated
Procedure: 24-well plates were blocked with 2% BSA in PBS overnight at 37° C. The following day, the plates were washed 3 times with PBS before being used in the assay. Human CHO cell lines expressing α11 were harvested and resuspended at 1.25×10^6 in ExpiCHO Expression Medium (Gibco™ Cat #A2910002). The collagen gel solution was prepared by diluting 3 mg/mL stock collagen type I (Gibco™ Collagen I Rat Protein, Tail Cat #A1048301) to 1 mg/mL in the media containing the CHO cells. Sodium hydroxide was added to the solution to neutralize the pH and 400 μL of the collagen solution was added to each well of the 24-well plates. For the wells where the antibodies were included in the collagen gel solution, CHO cells were prepared at 2.5×10^6 and the antibodies were prepared at 2× final concentration in ExpiCHO media. The cells and antibodies were then combined 1:1 before the addition of the stock collagen type 1. The gels were allowed to polymerize for 60 minutes at 37° C. Antibodies were added to the ExpiCHO media, which was then layered on top of the polymerized gel (400 μL/well). The gels were incubated for 6 days at 37° C. before gel contraction was quantified. Images of each well were analyzed using Image J and gel contraction was determined as a percentage of the initial gel area.
Selected exemplary antibodies were tested for the ability to inhibit cell-mediated 3D gel contraction because this ability is directly linked to the functionality of the exemplary antibodies.

[2] = system: CHO-K1 cells expressing human α11; test: Cell adhesion inhibition (xCelligence), type I collagen; format: cell-based; settings: CHO-K1 hu α11 cells; read-out: IC50 of blocking cell adhesion to type I collagen
Procedure: 0.6×10^6 cells/mL were incubated with each antibody at a range of concentrations for 20 minutes at 37° C. E-Plate VIEW 96 PET plate coated with 100 ng/mL type I collagen or PBS overnight at room temperature was blocked in 3% BSA for 1 house at room temperature. After washing the plate with PBS, cell and antibody mixture was added to the wells and the plate was places into an xCelligence machine. Cell adhesion was recorded over 6 hours. The time point of maximum cell adhesion was used for comparison relative to control.
A CHO-K1 hu α11 cell line was used to assess the ability of mAbs to block α11β1-mediated binding to type I collagen. […] In the “Untreated” condition, cells were plated on type I collagen but no antibody was added and in the “Uncoated” condition, cells were seeded onto BSA-coated wells containing no type I collagen. Statistics were performed using one-way ANOVA followed by Dunnett's multiple comparisons test. […] Therefore, it is possible that these mAbs bind on an α11β1 domain that keeps the integrin in a low or intermediate affinity state. […] Nine human mAbs were also tested for their ability to inhibit the binding of human CHO-α11 cells to type I collagen.

α11β1 I Domain = molecular target: T1, α11β1 I Domain; test: SPR binding to α11β1 I Domain; settings: SPR data
Procedure: as §1, §2

| Molecule | binding to the headpiece domain of α11β1 (α11β1 Headpiece) | inhibition of CHO-hu α11-mediated collagen gel contraction [1] | IC50 [2] [nM] | binding to the I domain of α11β1 (α11β1 I Domain) |
| --- | --- | --- | --- | --- |
| 1994_01_C07: fully human anti-α11β1 mAb (phage display); HCDR3 SEQ ID NO: 267, LCDR3 SEQ ID NO: 271 (antibody, V domains shown) VH: QVQLVQSGAEVKKPGASVKVSCKASGYTFTSYGISWVRQAPGQGLEWMGWISAYNGNTNYAQKLQGRVTMTTDTSTSTAYMELRSLRSDDTAAYYCARVTGITGTTIDPWGQGTMVTVSS VL: DIQMTQSPSSLSASVGDRVTITCRASQSISSYLNWYQQKPGKAPKLLIYDASSLESGVPSRFSGSGSGTEFTLTISSLQPDDFAVYYCQQYNNWPQTFGQGTKVEIK | do not bind | inhibited CHO-hu α11-mediated collagen gel contraction | 3.3 | do not bind |
| 1994_01_D12: fully human anti-α11β1 mAb (phage display); HCDR3 SEQ ID NO: 267, LCDR3 SEQ ID NO: 334 (antibody, V domains shown) VH: QVQLVQSGAEVKKPGSSVKVSCKASGYTFTSYGISWVRQAPGQGLEWMGWISAYNGNTNYAQKLQGRVTMTTNTSTSTAYMELRSLRSDDTAVYYCARVTGITGTTIDPWGQGTLVTVSS VL: DIQMTQSPSSLSASVGDRVTITCRASQSISSYLNWYRQKPGKAPKLLIYAASSLQSGVPSRFSGSGSGTDFTLTISSLQPEDAATYYCQQYDSQSGTFGQGTKLEIK |  | inhibited CHO-hu α11-mediated collagen gel contraction |  |  |
